# Assay: soluble on expression in E. coli; label from the status in PepcDB or PDB records
row,Sequence,soluble on expression in E. coli
1,MGSDKIHHHHHHMGISNIKQLYSKWKSLQPLKPEDLKRWNDKFKLEFNYNSNHLEGNTLTYGQTKLLLMFGETSGNASLKDYEEMKAHNVGLEMIKQEAQDKERPLTESFIRELNRTILVQDYWKNAKTPDGQDIRMQIKVGEYKSRPNSVLTATGEVFSYASPEETPAFMTSLVDWYNLEADKGILTPVELAALLHYRYIRIHPFEDGNGRIARLLVNFVLHRYGYPMIVIHSEDKSNYLNILHQCDVEAGLTPSDGANATLNDILPFVNYLSSCLIRSLTLAIKAAKGESIEEEGDFDKKIAMLQRRYSDKAIEKSSRSVEQARSAFFELAVYVEQKISGLQKLFDRTFITNTPTWNMARKINTPNPDEPIIQSHILYTKSKEYSFVEDIIRLSKKSQVDYFKLKYDAVTFHFNHCRYAGDNTFDFPFCIYIQYLSDGCEISCDITSDSVKLSYNPDVLAEEGKEYMDTACNELLKLLEEKMNDKSPEN,not soluble
2,MAHHHHHHMASTGNGGDSKAAASSLSPQKAGMVAPLTSAPPLTASTTSPSRLNSMRTANASASSKNNAPTGPSKKGGTAVKPSPEVGGKAAAGSSEPEPRASVNIDRQSKPNANSVNASNVADSTNAPSGKRPDHGRRGRRQECSSWFDAEKPAKADRPADKELNQNVQIVQDDIPDAEQAHREQAERAQRQKEKLARHISESPTGFQATLPRLNELDVTNSWDKLLRMMRSEFDMSCLTSCLARELDEDVAWNPEMLLVQLTSDMLDAAELQKDGGEAYVPVDASDIGQMTGGEVARRRKEKRSTTTAGGAAPAAGAAGGTEREPEKGSEKPAAASPTPAFQAAASKALRKQTTTDPAAAAPSSKKARDTDNAASTSTANSSSTRKRSAAGSRSGEASGGGGNNTNASSSTAKGDSADDTKSSKSTSLKAQVSKLFSK,not soluble
3,MGSDKIHHHHHHVRIAILSQGPQLYSTKRLVEAALARGHEVKVINPLKCYMNINMTKPSIHMAGKDLGHFDAVIPRIGASVTFYGSAVLRQFEMMGVYAVNGSIGIARSRDKLRSMQLLSRQGIGLPITGFANKPSDIPDLIDMVGGAPLVVKLLEGTQGIGVVLAETRKAAESVLEAFMGLKANIMVQEYIAEAQGADIRCFVLGDKVIAAMKRQAKPGEFRSNLHRGGSATLVKLTPEERSVALRAAKTMGLNIAGVDLLRSNHGPVVMEVNSSPGLEGIEKATQKDVADAIICFMEKNANKSIKSAQ,not soluble
4,MGHVVKVALLGLGEVGEKFAEHFLEKIQEDRANVEIVAVAHRDLESPVALGFVHSKVPVFKDAMEVVTLGAKVDIIFDLTGDPEVRRKLRIALQESHNQHTVIAPEVVAHLLWNFFGEGELPRSNRTGY,soluble
5,MVSATYSVVYETGKKLNSGFDNWGWDSKMSFKDNSLVLTADPDEYGAISLKNLNSNYYGKGGCIYLQVKTETEGLVKVQGVRGYDETEAFNVGSFRSSSDFTEYKFEVDDEYQFDRIIVQDGPASNIPIYMRYIIYSTGSCDDHILEHHHHHH,soluble
6,QGDIGIDNLRNFYTKKDFVDLKDVKDNDTPIANQLQFSNESYDLISESKDFNKFSNFKGKKLDVFGISYNGQSNTKYIYGGVTATNEYLDKSRNIPINIWINGNHKTISTNKVSTNKKFVTAQEIDVKLRKYLQEEYNIYGHNGTKKGEEYGHKSKFYSGFNIGKVTFHLNNNDTFSYDLFYTGDDGLPKSFLKIYEDNKTVESEKFHLDVDISYKA,soluble
7,MKFFILSTTLLLIGVQCGYPVAQNSYPTPPPPSDSYVVPKQSYPTAPGAYATKHSFPQNSAPVTAPPLPPPPAPSGYSSDDASVTSNVAASPPAPPTDAQIVGSSSSSTNYGGSSPTYGGSLSSGGIVGGNSLNYGTYNSASAGTPAATGAGASSGYRRRAKAKARARARARTAPNRRLHQRRHLQPIRRFRFQKKAKQ,soluble
8,MIEFKNVSKHFGPTQVLHNIDLNIRQGEVVVIIGPSGSGKSTLLRCINKLEEITSGDLIVDGLKVNDPKVDERLIRQEAGMVFQQFYLFPHLTALENVMFGPLRVRGVKKEEAEKQAKALLAKVGLAERAHHYPSELSGGQQQRVAIARALAVKPKMMLFDEPTSALDPELRHEVLKVMQDLAEEGMTMVIVTHEIGFAEKVASRLIFIDKGRIAEDGSPQALIENPPSPRLQEFLQHVS,not soluble
9,MGSDKIHHHHHHMKHYRQVVSPQLRQQALDWILAAAQRPDPALEPEFDIADDERREAKKVRNLHRHDPLFWDDWFARSGLDALVRDHLRKPRLLRHAAFIKRHADESYIPLHQDIALWEKRYESAQTFWVALTPSRNDNGGMFYYPDDRTIFPHEFDLAYPMFKCIDLQANGISREQLVDAELDAGDVLVWPARTAHGSHNNRSGQLRIGMPIVFVEDDEFHQLNREDSMKTWIASNLKSVFPDEAITEDNLDHYLPQLCDYSLKMVTFLARFSRQFGHAPKIHDFIREPRLATLSASDAGARR,not soluble
10,MGSDKIHHHHHHMQQSKEERVHDVFEKISDKYDVMNSVISFQRHKAWRKETMRIMDVKPGSKALDVCCGTADWTIALAEAVGEQGKVVGLDFSENMLSVGKQKVEALQLKQVELLHGNAMELPFEDNTFDYVTIGFGLRNVPDYMHVLKEMTRVVKPGGKVICLETSQPTMIGFRQGYILYFKYIMPLFGKLFAKSYKEYSWLQESASTFPGMKELANMFEKAGLERVQVKPFTFGVAAMHLGMKPESK,not soluble
11,MGHHHHHHSHMAFCAILLVPSLCRMPSLPTSPWAFPVHWAGFMFKPLDWQGNDFFPPQDEVLAPCLGIKTPLKHEPCASLPFSVLFQSSASQSLLGTMGSLSPHLCGHTMCPVNPELPLSFQADHRSAQPDACSPLCHPSSLLPSFHTASLPFSIHAHHSPLPCDLDPPLYLAETVSLLEEWGPPSSCPMQCKLTSHPARLTHLPPCLWGFAVALKPSWAGLAPSLLPPPRMSLCRPLSFLRHQCPWLPWQAHQGLVPWSPSMVAAACIVSPSGHCRCQPFIPHVFLGHGGLTSVSGECG,not soluble
12,MPSRLSLIAALLLPLAVQAEPADTRALLADSLADSQAQVEAAEQAMRRSENKAVQLYAKRVLTEQQEFDHQLRALAGEKALALPSPRQTERQAAAPGGFDERGFLDAQIRQQDRLVARFEGIARDSADPDLRRFADEWLARFYHHRELADQLRSGRAD,not soluble
13,GMARLKNLPQERPLPLASLIEARENQVLSMALAQSDRVQISLFSFADGESVSEEEYFGDTLYLILQGEAVITFDDQKIDLVPEDVLMVPAHKIHAIAGKGRFKMLQITLIDEER,soluble
14,SKVKEGKDLIVGLDIGTSKIVAIVAEMKPEGGFEIIGLGSHLSRGLKKGVVVNIEATVNAIQRALEEVELMAGCRISEVYAGIAGNHIRGFNSHGMVAIKDKEVTQADVEKVMETAKAVNIPADQ,not soluble
15,MSTEDALCFTGEEYARHVREYWRGVAESDGFDSEDIRSPVVLTGLFHYDCQSGRRYPDPLLVKRYALLGLHRFNILQGTSFELDALQKFNKTMNLTSSYYITLLANEPGAIPLQKTFQVRVDERKYDTLDLTVAIARLKKDQNEAAETTKEPFVPHFCCSAVSDGVFQGPLPDWPSDDALRHDRNRFYELEKSEWQATDWISLYLELLILATDRGMFGVAQTGLPQVQILKVVIETEEENEKPLDKRLNARRAHVYITFTGLPKSPRLVEIGEHVERKAIIRRVIDDSGYLTLLGKFWSGKDTEQRSKTRQSEEKVESSQKRSRLC,soluble
16,MGSDKIHHHHHHMDPRRRLVPDIITLQAFECAARHGNFTRAAEELNLTQSAVSRQIGELEAQTGMQLFERIRRRVVLSEAGRKFLPDVRRLLQQSEQLMVRAVSAGTSHASLSVATLPTFGSRWLMPRLSRFIDANPDMTITIGSRSHPFDFDEEGFDLAIHYGQPIWAHGTCTFLCNEVIVPVASPALLRRAGVNRAQDLAGQPLLHVTTRPKLWTEWLEMNGVTADNAYQGSRFDQFSMIIEAAASGIGFALLPRYLIEAELASSRLEIVFDIPLQTDKSYYVALPEGRQDNVLARAFQAWLLDQVGKPV,not soluble
17,MRKLMTATAALCACAVTVSAGAAWADADVQPAGSVPIPDGPAQTWIVADLDSGQVLAGRDQNVAHPPASTIKVLLALVALDELDLNSTVVADVADTQAECNCVGVKPGRSYTARQLLDGLLLVSGNDAANTLAHMLGGQDVTVAKMNAKAATLGATSTHATTPSGLDGPGGSGASTAHDLVVIFRAAMANPVFAQITAEPSAMFPSDNGEQLIVNQDELLQRYPGAIGGKTGYTNAARKTFVGAAARGGRRLVIAMMYGLVKEGGPTYWDQAATLFDWGFALNPQASVGSL,soluble
18,MSLTTILDIAKLAGVAKSTVSRYLNGGSVSEPTRQKIERVIKETGYIPNAFAQSLKAKQTNFIGTIVPRLDSFAASRTVMGIDDELKSLGYQMLMSNTDQSVEREIETIYNLANQKIAGVILLATVITKEHLNAFREVGIPTLLVGQEHTEVPCLIHDDFKAGYEMGKHVLSKGHKRIAYLGVGEHDIAVGVKRKEGFKQAMAEHGPCEVAYFETSFSMQDSFRVSPKMIETYQPSALVCATDNIALGALKGAYSIGMNVPKDLSITGFGGYEVTGIIHPSLTTVNFHFKAAGKMAARKMIKLMNGEEVNHLTRMDVELIERESVDNEGHHHHHH,soluble
19,IEGIPVYLLDKESGPFSFFHWIFIYPQAHPQNELSEILTHEGTHARQRHSIDVIISELMCIACWFNPFMWLMKREVRNNLEYMADNRVLEAGHDSKSYQYHLLGLAHQKSAITLSNSFNVLPLKNRITMM,not soluble
20,MPSKQVGWWTMSEHTNDEVQPTALSGNDAVNRAAEQWKESAHRNIPGLGDLPIPDDTANLREGPNLHDGLLALLPLVGVWRGTGHADTAEEGQYAFGQQITFAHDGENYLTYESRIWKLDDEGNSTDLDYRESGFWRISLKDEIEVVLTHSTGVAEIFYGEPMNERAWQIESASTMVTAQGPATLGPGKRLYGLMPNNNLGWVDERMVDGEMRPRMSAELSRVIGLEHHHHHH,soluble
21,MAHHHHHHMGLKFYVLVFLILCLKNVVKGDKCETEFSKLYPESNSLTGLIYAHTANVHKLSMWVYFIYNHFSSADELIKYLEKTNINTLENSDHTCFARAVTLYLFYYYLKDIKSMLSTDDYQSFFKNKFKDINPLFINDFILILNDKKFMENLDLYIMKESEREHLVIKKNPFLRVLNKASTTTHATYKSNPYFIVGSRVHTPYKDYLGDFNKYTEISVLNYVRDYNFLIYAGSRENYYNSDIAGPARSVNNVISKNKTLGLRKRSSSLALVGTNNNDPIFAYCEKDNKSEYYGTPDDLITSFFSIIKTKMLNSHKTFLRQFDYALFHKTYSIPNLKGFRFLKHLFQKKNLVNFVGMYENHVSTEINFLAEDFVELFDVTMDCYSRQYSNRAAENFKAIRELNVL,not soluble
22,GSMAAAGNKSINAKLVLLGDVGAGKSSLVLRFVKDQFVEFQESTIGAAFFSQTLAVNDATVKFEIWDTAGQERYHSLAPMYYRGAAAAIIVFDVTNQASFERAKKWVQELQAQGNPNMVMALAGNKSDLLDARKVTAEDAQTYAQENGLFFMETSAKTATNVKEIFYEIARRLPRVQPTEN,soluble
23,SYYHHHHHHDYDIPTTENLYFQGAMGSFGSKDAAADGKPLVVTTIGMIADAVKNIAQGDVHLKGLMGPGVDPHLYTATAGDVEWLGNADLILYNGLHLETKMGEVFSKLRGSRLVVAVSETIPVSQRLSLEEAEFDPHVWFDVKLWSYSVKAVYESLCKLLPGKTREFTQRYQAYQQQLDKLDAYVRRKAQSLPAERRVLVTAHDAFGYFSRAYGFEVKGLQGVSTASEASAHDMQELAAFIAQRKLPAIFIESSIPHKNVEALRDAVQARGHVVQIGGELFSDAMGDAGTSEGTYVGMVTHNIDTIVAALAR,soluble
24,MGKATYTVTVTNNSNGVSVDYETETPMTLLVPEVAAEVIKDLVNTVRSYDTENEHDVCGW,soluble
25,MKKLIINYTELVDYLLENRGMDGYIYFYESMETEQGIVISFSTFDTGDSIYRMKFCPSDHGYDTSLEPGSYSQSEYGTSFEEEDVEGYIAGLDEIIADKYKEFYDEDVEVVFVD,soluble
